Laboratory results reported in article doi:10.1101/2025.08.31.673358.

Target: Fragile X messenger ribonucleoprotein (FMRP) (human (endogenous in iPSC-derived NPCs)) (UniProt Q06787)
Assay: co-IP

percent of input co-immunoprecipitated: 20%
Substance: histone H3 di-methylated at lysine 79 (H3K79me2) (from UniProt P68431 1-136) (natural protein)
